From the FLAb antibody collection (doi:10.7554/elife.23156)

B1: scFv; the commonest letter at each place (parent)
chain 1: EVKLDETGGGLVQPGRPMKLSCVASGFTFSDYWMNWVRQSPEKGLEWVAQIRNKPYNYETYYSDSVKGRFTISRDDSKSSVYLQMNNLRVEDMGIYYCTGSYYGMDYWGQGTSVTVS
chain 2: DVVMTQTPLSLPVSLGDQASISCRSSQSLVHSNGNTYLRWYLQKPGQSPKVLIYKVSNRFSGVPDRFSGSGSGTDFTLKISRVEAEDLGVYFCSQSTHVPWTFGGGTKLEIK

Columns and labels:
fluorescein = variants of: B1; assay: Kd (Tite-Seq); conditions: with fluorescein; format: scFv 4-4-20, heavy + light
[1] = variants of: B1; assay: yeast surface expression (ratio to wild type); higher = more expressed; conditions: format: scFv 4-4-20, heavy + light

Row | Variant | Kd (fluorescein) | yeast surface expression [1]
1 | chain 1 W33E M34L | ≥ 10000 nM | 0.721
2 | chain 1 T28V Y32S V37F | ≥ 10000 nM | 0.818
3 | chain 1 W33E N35C | ≥ 10000 nM | 0.797
4 | chain 1 W33E N35R | ≥ 10000 nM | 0.588
5 | chain 1 W33E N35G | ≥ 10000 nM | 1.05
6 | chain 1 W33E N35K | ≥ 10000 nM | 0.455
7 | chain 1 T28S M34N | ≥ 10000 nM | 0.645
8 | chain 1 T28S M34R | ≥ 10000 nM | 1.99
9 | chain 1 W33C M34C W36A | ≥ 10000 nM | 0.449
10 | chain 1 T28N F29R | ≥ 10000 nM | 0.996
11 | chain 1 T28Y W36M | ≥ 10000 nM | 0.486
12 | chain 1 T28Y W36Q | ≥ 10000 nM | 0.297
13 | chain 1 T28L W36A | ≥ 10000 nM | 0.508
14 | chain 1 T28M D31I W33Y | ≥ 10000 nM | 0.462
15 | chain 1 T28N Y32Q | ≥ 10000 nM | 1.04
16 | chain 1 T28Y M34L N35C | ≥ 10000 nM | 0.495
17 | chain 1 T28L M34D | ≥ 10000 nM | 0.101
18 | chain 1 T28L N35D W36N | ≥ 10000 nM | 0.674
19 | chain 1 W33I N35W | ≥ 10000 nM | 0.803
20 | chain 1 W33A V37N | ≥ 10000 nM | 0.49
21 | chain 1 W33A V37W | ≥ 10000 nM | 0.625
22 | chain 1 T28Q N35R | ≥ 10000 nM | 0.537
23 | chain 1 T28M Y32W | ≥ 10000 nM | 0.903
24 | chain 1 W33M W36P | ≥ 10000 nM | 0.591
25 | chain 1 W33M M34P | ≥ 10000 nM | 0.576

Row | Variant | Kd (fluorescein) | yeast surface expression [1]
26 | chain 1 W33M M34I | ≥ 10000 nM | 0.708
27 | chain 1 T28R W33G | ≥ 10000 nM | 0.684
28 | chain 1 T28R W33L | ≥ 10000 nM | 0.935
29 | chain 1 W33G V37L | ≥ 10000 nM | 0.49
30 | chain 1 W33G V37Y | ≥ 10000 nM | 0.672
31 | chain 1 T28L W33S | ≥ 10000 nM | 0.867
32 | chain 1 T28L W33Y | ≥ 10000 nM | 0.826
33 | chain 1 T28V Y32N | ≥ 10000 nM | 0.765
34 | chain 1 W33M M34H N35K | ≥ 10000 nM | 0.305
35 | chain 1 T28N W36K | ≥ 10000 nM | 0.56
36 | chain 1 W33K W36Y | ≥ 10000 nM | 0.396
37 | chain 1 T28K W33M | ≥ 10000 nM | 1.03
38 | chain 1 T28K W33S | ≥ 10000 nM | 0.995
39 | chain 1 T28Y Y32K | ≥ 10000 nM | 0.818
40 | chain 1 T28L F29N | ≥ 10000 nM | 0.821
41 | chain 1 T28V W36H | ≥ 10000 nM | 0.619
42 | chain 1 T28N V37Y | ≥ 10000 nM | 1.05
43 | chain 1 T28Y D31V | ≥ 10000 nM | 0.509
44 | chain 1 W33N N35I | ≥ 10000 nM | 0.657
45 | chain 1 T28P W36P | ≥ 10000 nM | 0.295
46 | chain 1 W33I M34F | ≥ 10000 nM | 1
47 | chain 1 T28W N35H | ≥ 10000 nM | 0.727
48 | chain 1 T28W N35A | ≥ 10000 nM | 0.862
49 | chain 1 W33A W36H | ≥ 10000 nM | 0.549
50 | chain 1 W33H V37F | ≥ 10000 nM | 0.859

Further lines, with some results ahead:

Row | Kd (fluorescein) | Variant | yeast surface expression [1]
51 | 0.989 nM | chain 1 T28P S30N | 1.1
52 | ≤ 0.316 nM | chain 1 T28P S30K | 1.02
53 | 0.804 nM | chain 1 T28P S30G | 1.25
54 | ≥ 10000 nM | chain 1 T28N M34E V37L | 0.571
55 | ≥ 10000 nM | chain 1 T28W Y32W | 0.65
56 | 2.65 nM | chain 1 T28S S30R | 0.787
57 | 1.75 nM | chain 1 T28S S30M | 0.95
58 | 7.08 nM | chain 1 T28S S30I | 0.741
59 | ≥ 10000 nM | chain 1 W33D W36M | 0.165
60 | ≥ 10000 nM | chain 1 T28K Y32V | 0.858
61 | ≥ 10000 nM | chain 1 W33G W36I | 0.622
62 | 62.4 nM | chain 1 T28Q F29Q V37S | 0.421
63 | ≥ 10000 nM | chain 1 W33E V37T | 0.486
64 | ≥ 10000 nM | chain 1 W33E V37C | 0.709
65 | ≥ 10000 nM | chain 1 W33E V37Y | 1
66 | ≥ 10000 nM | chain 1 W33E V37L | 0.674
67 | ≥ 10000 nM | chain 1 T28R V37P | 1.99
68 | 1470 nM | chain 1 W33L V37D | 0.591
69 | ≥ 10000 nM | chain 1 T28M V37G | 0.468
70 | ≥ 10000 nM | chain 1 T28M V37K | 0.399
71 | 76.7 nM | chain 1 T28S D31C | 0.771
72 | ≥ 10000 nM | chain 1 W33K M34T | 0.893

Row | Kd (fluorescein) | Variant | yeast surface expression [1]
73 | ≥ 10000 nM | chain 1 W33E M34W | 0.966
74 | 403 nM | chain 1 T28M M34N | 0.566
75 | 35.3 nM | chain 1 T28M M34C | 0.719
76 | 0.763 nM | chain 1 T28Q | 1.06
77 | 1.66 nM | chain 1 T28L | 0.955
78 | 3.25 nM | chain 1 T28Y | 0.919
79 | 3.25 nM | chain 1 T28S | 0.985
80 | 2.65 nM | chain 1 T28M | 1.02
81 | 1.38 nM | chain 1 T28R | 0.917
82 | 3.8 nM | chain 1 T28W | 0.893
83 | 0.743 nM | chain 1 T28P | 0.989
84 | 1.28 nM | chain 1 T28V | 1
85 | 1.21 nM | chain 1 T28N | 0.895
86 | 16.2 nM | chain 1 T28R N35G | 1.03
87 | 15.4 nM | chain 1 T28P M34S | 0.95
88 | 345 nM | chain 1 T28N Y32G | 1.19
89 | 6.06 nM | chain 1 T28W S30F | 0.69
90 | 4.44 nM | chain 1 T28W S30A | 0.868
91 | 4.44 nM | chain 1 T28V D31M | 0.587
92 | 25.9 nM | chain 1 T28R Y32H | 1
93 | 13.2 nM | chain 1 T28R Y32G | 0.959
94 | 3550 nM | chain 1 T28Q V37L | 0.864

Row | Kd (fluorescein) | Variant | yeast surface expression [1]
95 | 21 nM | chain 1 T28Q V37F | 1.1
96 | 832 nM | chain 1 T28Q N35P | 0.622
97 | 7.08 nM | chain 1 T28M S30W | 0.645
98 | 10.7 nM | chain 1 T28M S30L | 0.725
99 | 6.38 nM | chain 1 T28S F29Q | 0.969
100 | 26.9 nM | chain 1 T28S F29S | 1.17
101 | 62.4 nM | chain 1 T28S F29A | 0.957
102 | 24.5 nM | chain 1 T28V Y32R | 0.717
103 | 5660 nM | chain 1 T28P Y32R | 1.09
104 | 6.72 nM | chain 1 T28P Y32C | 0.967
105 | 1810 nM | chain 1 T28S W36R | 0.57
106 | 1.28 nM | chain 1 T28W V37C | 0.75
107 | 10.2 nM | chain 1 T28L V37Q | 0.731
108 | 0.804 nM | chain 1 T28Y S30P | 1.08
109 | 7.08 nM | chain 1 T28Y S30L | 0.792
110 | 72.9 nM | chain 1 T28N V37A | 0.941
111 | 1.84 nM | chain 1 T28Y D31Y | 0.779
112 | 0.989 nM | chain 1 T28V S30Q | 1.1
113 | 0.454 nM | chain 1 T28V S30D | 0.917
114 | 4.22 nM | chain 1 T28P W36Y | 1.05
115 | 4.68 nM | chain 1 T28N D31C | 0.826
